Measured values: the DeepSol protein solubility set

Experiment: soluble on expression in E. coli; label from the status in PepcDB or PDB records

Row | Sequence | soluble on expression in E. coli
1 | MEKRITTPLTDEVVKSLRAGDKVLITGYIYTARDAAHKRMVEAIQRGEKPPIDLKGQIIYYVGPTPPKPGQVIGSAGPTTAIRMDKYVEPLLKLGLKGMIGKGYRSPQVKELLKKYKAVYFAAVGGVATLLQKHIKSSELIAYEDLGTEAIRRLYVEDFPVIVANDAFGGDVFEEGRKKYAKIDV | soluble
2 | MEKVQSISNGTNSISYTLTRSRRKTVGIRITENGEVKVAAPLNIPDRQLKDIILKKLPWILRKQEELRKICEESRLENKFADGETFLYLGKEYTLRIAKGVLPEGVNLEENYIVVAADETKVSVNGPQYIRNVLKNFYVNQFVDIAKTRMDFFSPKIGVCPRKLTVREQKTRWGSCSSKGNISLNWKLVMAPMEVIDYVIVHELCHMKEMNHSKNYWNIVKSIIPDFELRRKWLKDNGHRLLM | soluble
3 | MEKYPEIQQMRSKMREGDDTNEFKIRPLKGLSHPSGNLQMQRFQEDRRERIHSIRKRENQDGRLDLIGVVGEITVVIDDVVYEEEKLRKVVFTMKG | not soluble
4 | MELFKEISQEESNKDSKENDNINEEIDIEQLKDKVKDLELQLEYEIKQHNVEIAEREETIKILETRIQELEHYKNDITEKDEAIINMSEKLLILSNKYDILVKESKLQEEELKHFKNKKKYRNDKTNEYILGLRNQNDEIKKEHELLNEKYAQLVKEYAILQNSCKVLNEQLENNQKNMELLIKEKSNNLDEKTAIKILNIGSKELIHKRVHNKNVDELSNLKLELEYKDMILNKLMRKQVSEGKTIKVEYTNNENKFENEKKLGEMYQKYLDSVCDNDNLKKEINKLHNKINDMKVEEEEHLKTISILRDYINKMYKEDVNINQFDDLINNILKDNTSLNEELSKQKRKNMADIYYFTKELQIVKKDKFKIIEKFDSKKVTNIPHLYEPLNLTLSKENNKREISDDDDDNKGPKGDLNFLKKNSDINCSESNIKKPLKTNDLVHIYMQDYMNNVQNKA | not soluble
5 | MELKDGESAGNAENDVEIENPEKSEKAEILQSLDKSLGKSTEESPEAKNLRYFKTKKIRFGPIEYQIVTQNINGPCPLIALINALVLKGKLTIPSSYVVTSTNLLNLLTNVILARAPPENDEKLKETFEANLGDVMNIMETLVNGLDVNVKFSAVDTFEFTPALSLFDLVSVNLYHVWLPDPQFTVLYDLIRNLNYNELVEKMCGDQSTETELLRTFYDESISQITFHGLASLMERMKDGELAVVFHNNHFSTILKRRDEIFKLVSDEGLCDEPNIVWETFSSVDGDCIFVNGDFGNFKPITPPTTHPSPESFEKLQISDNSPIEQGIEAVEHTSAHHSAPVSPQHRAPAPPAPQTARAPPETSPTRNSGAGGKSCLIM | soluble
6 | MELTLESQGYLESLYRAYLEDPLSLPEDWRRYFSALTLEDLEDGRRERQAAPLPGEALDLGFLLKVEALRQAYRELGHLAARIDPLGRERPRPKALSLEAHGLSPEDLKRPLPPLFGAPTLGALLERLEATYLGPVGFEVAHVEPEERAWLLSRIEAPWPKPAPEVRRRVLRSLLQASLFEAFLQRKYLGAKTFSVEGLESLIPLLQEAVQEAARFGVREVVLGMAHRGRLNVLAHVVEKPFEAIFREFEELFPEGYVGDVKYHLGHSTDVETPWGPVHVSLNFNPSHLEFVNPVALGRVRAKQDRFGDRERKRGLAVLVHGDAAFIGEGIVQETLNLSQLPGYRVGGTLHVVANNQLGFTTLPSEYTSSRYPTDVAKMVGAPIFHVNAEALDELLFVLALALEYRSRYGKDVVIDLVGYRRRGHNETDEPTFTQPGMYALIAKKPEPWRVYAERLEAEGLVSEEELKAWQEAYLERLESEFARVKAEATPVVYSTLGGVWQGYVGGPDHLVPEADTAFPKEGLKNLLVRLSSVPEGFQVHPKLKRFLEARREMAEEKRPVDWATAEALAFATLAVEGHRVRLTGQDALRGTFTQRHAALYDYRTGERYIPLQHLAEGQAEVEIHNSPLSEAGVLGFEYGYSLDYPEGLVLWEAQFGDFVNVAQVYIDQFLASAEVKWNRLSGLVLLLPHGLEGQGPEHSSARLERFLQLAAKDNLQVAYPTTPAQFFHLLRRQVKRKIRKPLVVMTPKSLLRHPEVVSALEELAEGRFQKVIPERVKGARKVLLTSGKVYYDLLQKRKELQAEDVAILRLELLYPFPEAELQEALGAYPKKVPVVFVQEEPVNQGAWWYLSARFCGEIYGHPFSVVARPESPSPAVGSSKVHKLEQEELLEEAFR | soluble
7 | MENEKIWIKELKEKRLAYGVSQNKLAVASHITRPYLSDIETGKAVPTQQVKEDLLNALERFNPDNPLEMLFDYVRIRFPTNDVAQIIGEVLRLNMDYMLHEDFGYYSYPEHYRFGDIVVLVSHDVSKGVLLELKGKGCRQFENFLLAQHRSWYDFFQDCMEHKGIFKRLDLAINDKTGILNIPDLAKKCKQEECISVFRSFKNYRSGELVHRDEKPYMGNTLYIGSLKSEVYFCIYEKDYEQYVKNDVPLEDAEVKNRFEIRLKNDRATQAMKDLLAHQQAEKTAFEIINRYIRFADKDDTKRRSDWKTNERWEWFIGKNRGALRLTTQPEPYSFERTLNWLHHQVAPTLKIASILDVLNGTTIISTMIQEAKLTEKHEKLIEQQHLAMEDLIT | not soluble
8 | MENFAEIVGIGPAGVISITGGGGKTSLMFHLARQLAYSGKRVLTTTTTKILAPSVEESRTLLISQDPQVILRHAKAHPGPGVHVSAAAGHIPHTEKLQGFPREAIRTFEDSGEFDWVVVEADGAARKPLKAPAAHEPVIPGNSTIVVALAGLEVLGRPLGEEMVFRSELAGELMQIPQGETITVPALARLLAHPSGGFKGAPPQARRFIFLNKADTPELQEKGGEVALQLKEIAPSVAEAVIVGQLRQEITLHRVYPRGELEHHHHHH | soluble
9 | MENGEVLISGYRIPYSYAAMPGVKKNLVIIDIKGDEIWQKLRAADRINEWKINVYIPHFIAGSKEVVDSEPSSNLDSAGEFYYNFVQAMRLKNVMLMGEGINADVALKCSMIHPERFSNVIAIDGTGYDGYAEELYRVQKPVLLVWGGARGYRETMIGQSYHDLIAGSVFKVFDNSKRPLEDSTDRFFSMLKNYIAVD | not soluble
10 | MENLKETVDIVVNSRYPEMNREGRELLAQVLIRKELEKGEMLLNEGQISRHMVFVGKGMLRQFYYKNGKDVTEHFSYEGCILMCIESLLKQEPTHLMAEALEPAVVYMLPYDVLQKLLEQSKEINAFYRKVLEYSLIVSQIKADSWRFETARERYNLLLHHHPEIIKRAPLSHIASYLLMTPETLSRVRSGVL | not soluble
11 | MENMENDENIVVGPKPFYPIEEGSAGTQLRKYMERYAKLGAIAFTNAVTGVDYSYAEYLEKSCCLGKALQNYGLVVDGRIALCSENCEEFFIPVIAGLFIGVGVAPTNEIYTLRELVHSLGISKPTIVFSSKKGLDKVITVQKTVTTIKTIVILDSKVDYRGYQCLDTFIKRNTPPGFQASSFKTVEVDRKEQVALIMNSSGSTGLPKGVQLTHENTVTRFSHARDPIYGNQVSPGTAVLTVVPFHHGFGMFTTLGYLICGFRVVMLTKFDEETFLKTLQDYKCTSVILVPTLFAILNKSELLNKYDLSNLVEIASGGAPLSKEVGEAVARRFNLPGVRQGYGLTETTSAIIITPEGDDKPGASGKVVPLFKAKVIDLDTKKSLGPNRRGEVCVKGPMLMKGYVNNPEATKELIDEEGWLHTGDIGYYDEEKHFFIVDRLKSLIKYKGYQVPPAELESVLLQHPSIFDAGVAGVPDPVAGELPGAVVVLESGKNMTEKEVMDYVASQVSNAKRLRGGVRFVDEVPKGLTGKIDGRAIREILKKPVAKM | soluble
12 | MENSDDIRLIVKIAQLYYEQDMTQAQIARELGIYRTTISRLLKRGREQGIVTIAINYDYNENLWLEQQLKQKFGLKEAVVASSDGLLEEEQLSAMGQHGALLVDRLLEPGDIIGFSWGRAVRSLVENLPQRSQSRQVICVPIIGGPSGKLESRYHVNTLTYGAAARLKAESHLADFPALLDNPLIRNGIMQSQHFKTISSYWDSLDVALVGIGSPAIRDGANWHAFYGSEESDDLNARHVAGDICSRFYDINGGLVDTNMSEKTLSIEMAKLRQARYSIGIAMGEEKYSGILGALHGRYINCLVTNRETAELLLK | soluble
13 | MENSGHKVYYCMGSPLFALNAGRMENNLVAFSGGLSINKQLQKEGKPGINVSPSFINENNPDTIFISGFLSRPLDEFYTLCRQYGIETDAVKQQRVYEVPPSWDFGNPRWILGLMYIADKLYPGNSGIDLEKEADEFYRQFYGMPYLEHHHHHH | soluble
14 | MEPPKLLGVVLTTALLFHIALTAKQAVVSRKSKLCGNVECEEVLFKARVKRVMGINNDPSFLNLAENAIISVVAVKFSDRPDIMEGKLNGEGSNGFFYAGAIDIMPFAEFLRTAITDKKEMLMISQNPADIGDKRIVGFLHSETDLVRDFNAKNAQAAAENGLPAPEPIPIPEPAHTGHGHSHGGHGHSHGGHGHSHGHPAPTPAPTPAPKPIEEAPKPAEEPVKPADLEMDAEIERLIKEEEERMKNVAEQPPLVLQSLPETPEAQKLPEEPLEPVTPEPIPEAPVPIAQYIQEPTTTPAPLEAPAPVENAPNLPTPTFSVDDLMAQAARDALNSNSIVPDAPKVEEPEPAPTPAPAPAEDPVVTPAPEELTGVCYKDDCQGLQTPPPPAPPPPAPAVPEEAQAPTPAPEEAPEAQIPAETAQIPPENAVPEAPEEPAPTTTPPPISAGEAEFLKWEEARQKREAVAAAPYEDAQAHQFVASPPPHVSSGLIELIRSSLGLGNITDSSVLLVVNLTFVAASFLVYIIIRSLSSGGESDILDRQAHFDLMNKHKQLQLQLNAKITEIQNLQANGAAAQRPEQPNYEPELLALRQQLAHLQSELQTAHAQRQEFEIHYHQIRELAEQKDHQIAQLTEQANDYQERLEKSQSELQELARHVDSARAELMDSQTSDYGRQQELMEKQAELEQIYVKIDNLTAENRDLTDKIAQLQVSDSLELEELEELRNKNLELQEQVKQLKEELEKEKSVAGSGNSGGWSDIDDNEVVEAVQPIETTPISSENSENLKKFEAEIAELKASLEKTEKELTKYRNLYNEKLTAISDKENRSQIEMEHKLKNAESDLQEAKRRAEEIGAEKKELSDRLNEMLKNLNQSMQKSAENDKMLTQLREEAFAKEKQLLEHDSVLRKKDDKIRELDAEFKRVKMEYVKLETKSFHDVRKLNMDVEELKTQLSMAGGVTSSRSIPDRLVSPLQEPIWDEPEPALQRVVLPLDGYSSMRRRSTRRSQLPFGAESPSDQEKKQAAPSHRRRSRSHGRQPPSFHDPYSMNPYLPGSSDSSFMSTSQPQFLPLNRQHSRSGHLMSNSANGPYSSGGSNGGRSPPPEMPLLSAIPPPGARKPLGKRPDSAHHLGK | not soluble
15 | MEPQLRCIGCGAAIQFENPKNAGYAPKSVLEKDAEEVICQRCFRLKHYNEVQDVPLDDDDFLSMLHRIGESKALVVNIVDIFDFNGSFIPGLPRFAADNPILLVGNKADLLPRSVKYPKLLRWMRRMAEELGLCPVDVCLVSAAKGIGMAKVMEAINRYREGGDVYVVGCTNVGKSTFINRIIEEATGKGNVITTSYFPGTTLDMIEIPLESGATLYDTPGIINHHQMAHFVDARDLKIITPKREIHPRVYQLNEGQTLFFGGLARLDYIKGGRRSFVCYMANELTVHRTKLEKADSLYANQLGELLSPPSKRYAAEFPPLVPRSLSVKERKTDIVFSGLGWVTCNDPGAQLVVHAPKGVDVFIRQSLI | soluble
16 | MEPTGMMVAAPTASLPEAIGGERNWDYRYTWIRDTAYVIEALATIGYKREAVSFLYDMMDVISRENKIRTIYSIDNSDDFVERELDFEGYRGSRPVRIGNKAVDQLQIDQYGSIVRAIHAMEKAGGVVNSYLWDFVEEMMAKIEYLWKYPDSSIWEFRTEPKQYVYSKVMSWAAFDSAITMARDLGLTAPIKKWKGIQDEIWNDVMTKGFDPQTNSFVQYYGSKNVDASLLRLPILGFIPANDERFIGTMKRIEDELMVDGYLFRRYREDDGLKGDEGSFLMLTFWYIEDLILMKRLKAARAALESIIEKANHLGLYSEEIDEKTGDFLGNFPQALSHLGIIRVAPKLEEAFLKRVSKINELEHHHHHH | not soluble
